These results are taken from patent US20260167959A1, “APTAZYME-BASED REGULATABLE GENE EXPRESSION SYSTEMS” (REJUVENATE BIO INC, priority 2022, published 2026).

To fix the notation:
B1: RA451 (nucleic acid)
DNA: GCGCGTCCTGGATTCGCGGAAGAATACCAGCATCGTCTTGATGCCCTTGGAAGTCTAACGCGTACATCCAGCTGACGAGTCCCAAATAGGACGAAACGCGC
modifications: expressed or natural sequence
B2: RA450 (nucleic acid)
DNA: GCGCGTCCTGGATTCGCGGAAACGCGTACATCCAGCTGACGAGTCCCAAATAGGACGAAACCCGGAATACCAGCATCGTCTTGATGCCCTTGGAAGTCCGGGCGC
modifications: expressed or natural sequence
B3: RA458 (nucleic acid)
DNA: GCGCGTCCTGGATTCGCGGAAACGCGTACATCCAGCTGACGAGTCCCAAATAGGACGAACCGGAATACCAGCATCGTCTTGATGCCCTTGGAAGTCCGGACGCGC
modifications: expressed or natural sequence
B4: RA456 (nucleic acid)
DNA: GCGCGTCCTGGATTCGCGGAAACGCGTACATCCAGCTGACGAGTCCCAAATACCGGAATACCAGCATCGTCTTGATGCCCTTGGAAGTCCGGGGACGAAACGCGC
modifications: expressed or natural sequence
B5: RA457 (nucleic acid)
DNA: GCGCGTCCTGGATTCGCGGAAACGCGTACATCCAGCTGACGAGTCCCAAATAGGACGAAGTGATACCAGCATCGTCTTGATGCCCTTGGCAGCACTAACGCGC
modifications: expressed or natural sequence
B6: RA459 (nucleic acid)
DNA: GCGCGTCCTGGATTCGCGGAAACGCGTACATCCAGCTGACGAGTCCCAAATAGGACGAAGGAATACCAGCATCGTCTTGATGCCCTTGGAAGTCCACGCGC
modifications: expressed or natural sequence
B7: RA452 (nucleic acid)
DNA: GCGCGTCCTGGAGAATACCAGCATCGTCTTGATGCCCTTGGAAGTCTATTCGCGGAAACGCGTACATCCAGCTGACGAGTCCCAAATAGGACGAAACGCGC
modifications: expressed or natural sequence
B8: RA454 (nucleic acid)
DNA: GCGCGTCCTGGATTCGCGGAAACGCGTACATCCAGCTGACGAGTCCAGAATACCAGCATCGTCTTGATGCCCTTGGAAGTCTCAAATAGGACGAAACGCGC
modifications: expressed or natural sequence
B9: RA453 (nucleic acid)
DNA: GCGCGTCCTGGATTCGCGGAAACGCGTACATCCAGCTGACGAGTCCCAAATAGGACGAAACAGAATACCAGCATCGTCTTGATGCCCTTGGAAGTCTGCGC
modifications: expressed or natural sequence
B10: RA455 (nucleic acid)
DNA: GCGCGTCCTGGATTCGCGGAAACGCGTACATCCAGCTGACGAGTCCCCGGAATACCAGCATCGTCTTGATGCCCTTGGAAGTCCGGCAAATAGGACGAAACGCGC
modifications: expressed or natural sequence
B11: RA045 (nucleic acid)
DNA: GAGAATACCAGCATCGTCTTGATGCCCTTGGAAGTCTCGCGCGTCCTGGATTCGCGGAAACGCGTACATCCAGCTGACGAGTCCCAAATAGGACGAAACGCGC
modifications: expressed or natural sequence

In one data set the test system is Renilla luciferase RNA. Description: Barcoded aptazyme variant library screen: un-cleaved Renilla luciferase RNA by barcode read counts, HEK293-T cells. It counts as cell-based. The settings on record: un-cleaved Renilla luciferase RNA by barcode read counts; with 1 mM theophylline (ON) over without theophylline (OFF); HEK293-T cells; triplicate. A digest of the protocol: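 Aptazyme variants (seven theophylline aptamers inserted after each T3H48 ribozyme nucleotide, 9-nt barcoded) cloned into the 3′ UTR of Renilla luciferase in psiCHECK-2; cells cultured ± theophylline, in triplicate. RNA and DNA barcodes amplified and sequenced; normalized read counts gave un-cleaved RNA fraction and ON/OFF fold-change.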
B1: the “Fold change in RNA expression between the ON state and the OFF state” value (from here on “Fold change”) stood at 0.5.
For the molecule B2, the “Fold change” value turned out to be 0.5.
On to B3, for which the “Fold change” value came out at 0.5.
For B4, the “Fold change” value is 0.5.
Same read-out and setting: the figure for B5 is 0.5; for B6 it is 0.5.
Same read-out and setting: the figure for B7 is 0.5.
On the same count and under the same terms, under B8 stands 0.5; under B9, 0.5; under B10, 0.5.

The same data set, now with this note: un-cleaved Renilla luciferase RNA, HEK293-T cells cultured with 1 mM theophylline (ON) over without theophylline (OFF); barcode read counts, triplicate.
As for B11, the “Fold change” value was 2.0 fold.
